Assay results from US9920295B2, “Bioreactor for isolation of rare cells and methods of use” (The Trustees of the University of Pennsylvania, priority 2012, dated 2018).

System: CD34+-derived cells
Assay: Apoptosis by cleaved caspase-3 intracellular flow cytometry and Annexin-V
Assay type: cell-based, human
Conditions: G-CSF 100 ng/ml; CH-223191 500 nM (4n fraction)
Method: Cells were fixed with 4% paraformaldehyde in PBS for 10 min, washed with PBS and resuspended in 0.1% saponin in HBSS (staining medium). The samples were then stained with antibodies against cytoplasmic antigens, including NMM-IIA (Sigma), NMM-IIB, phospho-NMM-IIA and caspase-3 (all from Cell Signaling Technology) for 30 min at room temperature. In some cases, cells were concurrently stained with PE anti-CD34 or anti-human CD38 for subpopulation analysis. Cells were then washed and stained with anti-rabbit or mouse secondary antibodies conjugated with Alexa 647 (Invitrogen) for 30 min, followed by analysis on FACSCalibur.

B1: G-CSF: human recombinant granulocyte colony-stimulating factor (protein, UniProt P09919 31-207, looked up)
Granulocyte …: TPLGPASSLPQSFLLKCLEQVRKIQGDGAALQEKLVSECATYKLCHPEELVLLGHSLGIPWAPLSSCPSQALQLAGCLSQLHSGLFLYQGLLQALEGISPELGPTLDTLQLDVADFATTIWQQMEELGMAPALQPTQGAMPAFASAFQRRAGGVLVASHLQSFLEVSYRVLRHLAQP
  viability of untreated CD34+ and CD34− cells: improves the viability
